Source: paper PMC12440821, “ACAD10 and ACAD11 enable mammalian 4-hydroxy acid lipid catabolism” (Nature Structural & Molecular Biology, 2025)

Legend:
[1] = target: the molecule itself; assay: cryo-EM structure; single-particle cryo-EM of ACAD11 K* incubated with 100 uM 4-HV-CoA; 50 mM HEPES, 50 mM NaCl, 2% glycerol, 50 uM FAD, pH 7.5; D2 symmetry imposed; 2.6 A
[2] = target: the molecule itself; assay: cryo-EM structure; single-particle cryo-EM of ACAD11 A* incubated with 100 uM 4-PV-CoA; 50 mM HEPES, 50 mM NaCl, 2% glycerol, 50 uM FAD, pH 7.5; D2 symmetry imposed; 3.6 A

Protein | stoichiometry N [1] | stoichiometry N [2]
ACAD11 K* mutant (kinase-inactive mouse acyl-CoA dehydrogenase 11) (enzyme, UniProt Q80XL6 1-779, looked up, catalytic aspartate of the kinase domain replaced with alanine; only the ACAD domains were resolved in the map; Cloned in pE-SUMOstar with a 5' SUMO tag; tag removed with Ulp1; Sample held FAD and 100 uM 4-HV-CoA; also called kinase-dead mutant; source: E. coli B21-CodonPlus (DE3)RIPL, purified (Ni-NTA, cation exchange, size-exclusion chromatography); not shown: SUMO, N-terminal, cleaved) METDVTSDTVEVLPQHKFDLRSLEAYLNQHLPGFGSDSRAVLTVTQYRSGQSNPTFFLQKGSQAYVLRKKPPGSLLPKAHKIDREFKIQKALFSIGFPVAKPLLYCRDASVIGTEFYVMEHVQGRIFRDFSIPGVSSAERAAIYVSVAETLAWLHSLDIRSLKLDKYGTGVGYCKRQVSTWTKQYQASAHQSIPAMDQLSTWLMKNLPDSDSEECLVHGAFKLDNIVFHPKECRVIAVLDWELSTFGHPLTDLAHLSLFYYWPRTLPMINRGSHIPENTGIPLMEELISIYCHRRGIDPNLPNWNFFMALSFFKLAGISQGVYRRYLMGNNSSEDSFLTANTVQPLAETGLQLSKRTLRTTPPQADAKSQLFAQSRRGQEVLTRVKQFMKQHVFPAEKEVAEYYAQSGNSAEKWGHPLVIEKLKEMAKAEGLWNLFLPAVSGLSQVDYALIAEETGKCFFAPDVFNCQAPDTGNMEVLHLYGSEQQKKQWLEPLLRGDITSVFCMTEPNVSSSDATNIECTIQRDGGGYIVNGKKWWSSGAGNPKCKIAIVLGRTESPSASRHRQHSMILVPMDTPGVELIRPLSVFGYMDNMHGGHWEVHFNHVRVPASNLILGEGRGFEISQGRLGPGRIHHCMRTVGLAERILQIMCDRAVQREAFKKKLYEHEVVAHWIAKSRIAIEEIRLLTLKAAHSIDTLGSASARKEIAMIKVAAPKAVCKIADWAIQVHGGAGVSQDYPLANMYAIIRTLRLADGPDEVHLSAIAKMELQDQARRLTARM | 4 | 
ACAD11 A* mutant (ACAD-inactive mouse acyl-CoA dehydrogenase 11) (enzyme, UniProt Q80XL6 1-779, looked up, catalytic aspartate of the ACAD domain replaced with asparagine; kinase and ACAD domains both resolved; Cloned in pE-SUMOstar with a 5' SUMO tag; tag removed with Ulp1; Sample held FAD and 100 uM 4-PV-CoA; also called ACAD-dead mutant; source: E. coli B21-CodonPlus (DE3)RIPL, purified (Ni-NTA, cation exchange, size-exclusion chromatography); not shown: SUMO, N-terminal, cleaved) METDVTSDTVEVLPQHKFDLRSLEAYLNQHLPGFGSDSRAVLTVTQYRSGQSNPTFFLQKGSQAYVLRKKPPGSLLPKAHKIDREFKIQKALFSIGFPVAKPLLYCRDASVIGTEFYVMEHVQGRIFRDFSIPGVSSAERAAIYVSVAETLAWLHSLDIRSLKLDKYGTGVGYCKRQVSTWTKQYQASAHQSIPAMDQLSTWLMKNLPDSDSEECLVHGDFKLDNIVFHPKECRVIAVLDWELSTFGHPLTDLAHLSLFYYWPRTLPMINRGSHIPENTGIPLMEELISIYCHRRGIDPNLPNWNFFMALSFFKLAGISQGVYRRYLMGNNSSEDSFLTANTVQPLAETGLQLSKRTLRTTPPQADAKSQLFAQSRRGQEVLTRVKQFMKQHVFPAEKEVAEYYAQSGNSAEKWGHPLVIEKLKEMAKAEGLWNLFLPAVSGLSQVDYALIAEETGKCFFAPDVFNCQAPDTGNMEVLHLYGSEQQKKQWLEPLLRGDITSVFCMTEPNVSSSDATNIECTIQRDGGGYIVNGKKWWSSGAGNPKCKIAIVLGRTESPSASRHRQHSMILVPMDTPGVELIRPLSVFGYMDNMHGGHWEVHFNHVRVPASNLILGEGRGFEISQGRLGPGRIHHCMRTVGLAERILQIMCDRAVQREAFKKKLYEHEVVAHWIAKSRIAIEEIRLLTLKAAHSIDTLGSASARKEIAMIKVAAPKAVCKIADWAIQVHGGAGVSQDYPLANMYAIIRTLRLANGPDEVHLSAIAKMELQDQARRLTARM |  | 4
